Results as given in the supplement of paper PMC10567573.

B1: FANCE (parent)
chain: AQVLMLGQILELPWKEETFLVLQS

Variants of: B1
Test: protein stability index of a GFP-peptide fusion (GPS, HEK-293T) (PSI 1-6); higher = more stable
Details: c terminus: a fixed tail appended
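Note: lentivirally expressed fusions sorted by FACS into six bins by GFP to DsRed ratio, PSI derived from sequencing read proportions per bin multiplied by bin number.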

Protein stability index of substitutions, site by site:
L20: I 2.31, D 1.6, V 3, K 1.91, T 1.76, H 2.03, E 2.24, W 2.87, G 1.81, C 1.48, P 1.94, S 2.3, A 3.76, N 2.56, Q 2.98, M 1.73, R 2.61, Y 3.73
L22: R 1.63, Y 2.56, A 2.06, H 2.08, T 1.61, D 1.49, W 2.86, S 1.13, G 3.21, M 2.5, F 2.29, E 2, V 1.7, N 1.47, K 2.14, Q 2.08
E17: F 1.89, R 1.48, H 3.21, K 3.12, Q 3.48, Y 5.43, L 2.23, M 2.08, G 4.35, D 3.79, N 4.33, V 4.49, A 2.43
P13: I 2.77, N 3.19, Q 2.39, Y 2.88, A 5.32, F 3.35, L 2.2, W 3.76, D 2.95, C 4.64, K 2.57, H 2.19
T18: G 3.68, S 2.84, Q 2.45, H 3.02, N 4.29, D 1.84, L 2.16, F 3.58, P 1.79, A 1.7, M 2.92, R 4.64, Y 2.29
S24: D 1.83, L 3.04, Q 1.69, R 2.69, F 2.67, E 3.98, K 2.21, G 2.41, N 3.35, A 1.88, I 5.17, W 3.86, C 2.6, Y 2.4, T 2.51, H 2.58
Q23: T 2.41, V 2, D 1.78, A 3.11, W 3.42, G 2.42, C 4.36, M 2.95, K 3.22, Y 3.54, I 2.18, P 3.09, F 1.91, N 2.44
V21: I 2.06, C 3.25, T 3.45, N 2.3, F 2.56, H 1.77, Y 3.3, S 2.05, G 3.02, A 3.08, R 3.15, K 2.9, E 2.57, W 2.4, Q 2.54, P 2.17, D 2.08
F19: M 2.68, G 2.11, P 1.55, W 1.88, R 2.1, T 1.56, E 2.25, A 1.77, C 1.54, D 2.53, V 2.48, K 1.53, H 3.46, S 1.75, Y 2.24, Q 1.51, N 2.02
W14: E 2.01, R 4.06, F 2.72, Y 2.51, D 1.58, N 3.44, I 2.95, G 2.07, P 1.83, L 2.21, S 3.07, K 1.96, H 3.52, C 2.55, T 2.08
L12: M 3.18, P 4.52, G 3.1, Y 2.6, W 2.1, T 2.91, K 2.57, I 2.49, S 2.69, F 2.48, N 1.94, R 3.1, H 2.4, Q 2.95
E16: H 3.11, T 3.35
